Read-outs that look alike come from different tables or passages of the source. *1 amine or outer side, *2 acyl side, *3 side chain or, on linkers, in order; H or OH if unused. Where no end group is shown, it is not given here. Side-chain parts run from the residue outwards. [ ]: non-standard residue; d: D form. The star is where a group is joined. Undecanoyl(11-OPh(4-COOH)) = O=C(O)c1ccc(OCCCCCCCCCCC(=O)*)cc1; Decanoyl(10-O(3-COOH-Ph)) = O=C(O)c1cccc(OCCCCCCCCCC(=O)*)c1; γGlu = O=C(O)[C@H](CCC(=O)[*:2])N[*:1]; C14 diacid = O=C(O)CCCCCCCCCCCCC(=O)*; AEEA = NCCOCCOCC(=O)O; Aib = CC(C)(N)C(=O)O
Columns and labels:
[1] = biological target: T1, human GLP-1 receptor (Homo sapiens, UniProt P43220); test: In vitro potency, CRE luciferase reporter gene assay in BHK cells expressing the human GLP-1 receptor; assay type: cell-based; conditions: average of duplicates;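 also: firefly luciferase luminescence read after 3 h incubation at 37 °C, compounds tested in an eight-point series from 0.01 pM to 100 nM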
T1 construct: expressed in transfected cells; host or cells: membranes from BHK cells, parent line BHKTS13, clone FCW467-12A
Target sequence in this assay (P43220 24-463): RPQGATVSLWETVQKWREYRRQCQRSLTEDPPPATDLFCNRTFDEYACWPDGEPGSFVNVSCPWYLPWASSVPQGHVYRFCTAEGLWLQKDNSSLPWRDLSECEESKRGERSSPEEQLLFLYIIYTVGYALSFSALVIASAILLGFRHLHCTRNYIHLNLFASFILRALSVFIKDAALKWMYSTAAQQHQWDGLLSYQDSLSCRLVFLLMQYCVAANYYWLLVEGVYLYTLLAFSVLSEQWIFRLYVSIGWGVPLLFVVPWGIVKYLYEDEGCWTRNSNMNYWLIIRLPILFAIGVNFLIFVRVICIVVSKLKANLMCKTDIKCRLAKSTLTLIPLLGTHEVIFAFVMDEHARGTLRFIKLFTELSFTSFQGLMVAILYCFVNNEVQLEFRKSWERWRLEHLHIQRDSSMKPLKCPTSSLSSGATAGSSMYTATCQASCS
Experimental: The in vitro potency is the measure of human GLP-1 receptor activation in a whole cell assay.
In vitro potency was determined by measuring the response of the human GLP-1 receptor in a reporter gene assay. The assay was performed in a stably transfected BHK cell line that expresses the human GLP-1 receptor and contains the DNA for the cAMP response element (CRE) coupled to a promoter and the gene for firefly luciferase (CRE luciferase). When the human GLP-1 receptor is activated it results in the production of cAMP, which in turn results in the luciferase protein being expressed. When assay incubation is completed the luciferase substrate (luciferin) is added and the enzyme converts luciferin to oxyluciferin to produce bioluminescence. The luminescence is measured as the readout for the assay.
An increase of the in vitro potency, EC50 value, in the presence of serum albumin would indicate an affinity to serum albumin and represents a method to predict a protracted pharmacokinetic profile of the test substance in animal models.
The cells were cultured at 5% CO2 in Cell Culture Medium. They were aliquoted and stored in liquid nitrogen. Before each assay an aliquot is taken up and washed twice in PBS before being suspended at the desired concentration in the assay specific buffer. For 96-well plates the suspension was made to give a final concentration of 5×10^3 cells/well.
Assay Medium consisted of DMEM w/o phenol red, 10 mM Hepes and 1× Glutamax. The 1% Assay Buffer consisted of 2% ovalbumin, 0.2% Pluronic F-68 and 2% HSA in Assay Medium. The 0% Assay Buffer consisted of 2% ovalbumin and 0.2% Pluronic F-68 in Assay Medium.
1) Cell stocks were thawed in a 37° C. water bath.
2) Cells were washed three times in PBS.
3) The cells were counted and adjusted to 5×10^3 cells/50 μl (1×10^5 cells/ml) in Assay Medium. A 50 μl aliquot of cells was transferred to each well in the assay plate.
4) Stocks of the test compounds and reference compounds were diluted to a concentration of 0.2 pM in 0% Assay Buffer for the 0% HSA CRE luciferase assay and 1% Assay Buffer for the 1% HSA CRE luciferase assay. […] Compounds were tested at the following final concentrations: 1×10^−7 M, 1×10^−8 M; 1×10^−9 M, 1×10^−10 M, 1×10^−11 M, 1×10^−12 M, 1×10^−13 M, and 1×10^−14 M. 6) The assay plate was incubated for 3 h in a 5% CO2 incubator at 37° C. […] 8) A 100 μl aliquot of steadylite plus reagent was added to each well of the assay plate (reagent was light sensitive). 9) Each assay plate was covered with aluminum foil to protect it from light and shaken for 30 min at room temperature. 10) Each assay plate was read in a Packard TopCount NXT instrument. Calculations and Results
The data from the TopCount instrument were transferred to GraphPad Prism software. The software performs a non-linear regression (log(agonist) vs response).
A minimum of two replicates was measured for each sample on separate assay plates. The reported values are averages of the duplicates. For some examples more than one assay was run and in this case the data reported are the averages of the averaged duplicates.

[2] = Pharmacokinetic study in mini pigs after i.v. administration; assay type: in vivo; conditions: female, Göttingen, pig, plasma, iv, 2 nmol/kg; read-out: Minipig iv PK, t½ (converted)
Experimental: The purpose of this study is to determine the protraction in vivo of the GLP-1 derivatives after i.v. administration to mini pigs, i.e. the prolongation of their time in the body and thereby their time of action. This was done in pharmacokinetic (PK) studies, where the terminal half-life of the derivative in question was determined. By terminal half-life is generally meant the period of time it takes to halve a certain plasma concentration, measured after the initial distribution phase.
Female Göttingen mini pigs obtained from Ellegaard Göttingen Minipigs (Dalmose, Denmark) at approximately 5 months of age and weighing approximately 10 kg were used in the studies. The mini pigs were housed in pens with straw as bedding, four to six together in each pen and fed restrictedly once or twice daily with Altromin 9023 mini pig diet (Chr. Petersen A/S, DK-4100 Ringsted). The pigs were used for repeated pharmacokinetic studies with a suitable wash-out period between successive GLP-1 derivative dosings. An acclimatisation period of 1 week was allowed during which time the mini pigs were trained to be fixated on the back for blood sampling and in slings for i.v. dosing. All handling, dosing and blood sampling of the animals was performed by trained and skilled staff.
The GLP-1 derivatives were dissolved in 50 mM sodium phosphate, 70 mM sodium chloride, 0.05% tween 80, pH 7.4 to a concentration of approximately 20 nmol/ml. Intravenous injections (the volume corresponding to usually 2 nmol/kg, for example 0.1 ml/kg) of the compounds were given as intravenous injections via a Venflon inserted in an ear vein, while the animals were placed un-anaesthetised in a sling. The dose volume was 0.1 ml/kg, and blood was sampled at predefined time points for up till 13 days post dosing (samples were taken with a syringe from a jugular vein). Blood samples (for example 0.8 ml) were collected in EDTA buffer (8 mM) and then centrifuged at 4° C. and 2000 G for 10 minutes.
Individual plasma concentration-time profiles were analysed by a non-compartmental model in WinNonlin v. […] 6.2 or 6.3 (Pharsight Inc., Mountain View, Calif., USA), or other relevant software for PK analysis, and the resulting terminal half-lives determined.

[3] = Pharmacokinetic studies in Beagle dogs (i.v. and p.o.); assay type: in vivo; conditions: dog, plasma
Experimental: Pharmacokinetic (PK) studies in Beagle dogs were conducted in order to determine a) the protraction of the GLP-1 derivatives after i.v. administration, and b) the bioavailability of the GLP-1 derivatives after p.o. administration.
By protraction is meant the prolongation of the time in the body and thereby the time of action of the GLP-1 derivatives. This was done in pharmacokinetic (PK) studies, where the terminal half-life of the derivative in question was determined. By terminal half-life is generally meant the period of time it takes to halve a certain plasma concentration, measured after the initial distribution phase.
The dogs were housed in pens (12 hours light: 12 hours dark) with softwood based granules as bedding, two together in each pen and fed restrictedly once daily with […] ™ Struvite Management Diet (Dechra Veterinary Products, UK). Exercise was permitted daily, whenever possible. The dogs were used for repeated pharmacokinetic studies with a suitable wash-out period between successive GLP-1 derivative dosings. An acclimatisation period of 4 weeks was allowed during which time the dogs were trained. All handling, dosing and blood sampling of the animals was performed by trained and skilled staff. The dogs were fasted overnight before dosing and from 0 to 4 h after dosing, but had ad libitum access to water during the whole period.
The dogs were housed in social groups (12 hours light: 12 hours dark), and fed individually and restrictedly once daily with Royal Canin Medium Adult dog (Royal Canin Products, China Branch, or Brogaarden A/S, Denmark). Exercise and group social was permitted daily, whenever possible. The dogs were used for repeated pharmacokinetic studies with a suitable wash-out period between successive GLP-1 derivative dosings. An appropriate acclimatisation period was given prior to initiation of the first pharmacokinetic study. All handling, dosing and blood sampling of the animals was performed by trained and skilled staff. Before the studies the dogs were fasted overnight and from 0 to 4 h after dosing. […]

[4] = biological target: T1, human GLP-1 receptor; test: GLP-1 receptor binding, competitive 125I-GLP-1 SPA binding assay on isolated membranes; conditions: low HSA (max. 0.001% final assay concentration); read-out: IC50/nM (low HSA)
[5] = Pharmacodynamic (PD) study in pigs, effect on food intake; assay type: in vivo
Experimental: The purpose of this experiment is to investigate the effect of the GLP-1 derivatives on food intake in pigs. This was done in a pharmacodynamic (PD) study as described below, in which food intake was measured from 1 to 4 days after administration of a single dose of the GLP-1 derivative, as compared to a vehicle-treated control group.
Female Landrace Yorkshire Duroc (LYD) pigs or Large White hybrid, approximately 3 months of age, weighing approximately 30-35 kg were used (n=3-4 per group). The animals were housed in a group for approximately 1 week during acclimatisation to the animal facilities. During the experimental period the animals were placed in individual pens at least 2 days before dosing and during the entire experiment for measurement of individual food intake.
The animals were fed ad libitum with pig fodder (Svinefoder Danish Top or HRC Sow and Weaner Diet) at all times both during the acclimatisation and the experimental period. Food intake was monitored on line by logging the weight of fodder every 15 minutes using the Mpigwin system (Ellegaard Systems, Faaborg, Denmark). Alternatively fodder was offered in the morning each day, and availability for the full 24-hour period was ensured. Any uneaten fodder was removed and weighed (manually) on the following morning, and replaced with fresh fodder.
The GLP-1 derivatives were dissolved in a phosphate buffer (50 mM sodium phosphate, 70 mM sodium chloride, 0.05% tween 80, pH 7.4) at concentrations of approximately 120 nmol/ml corresponding to doses of 3 nmol/kg. The phosphate buffer served as vehicle.
On the last day of each study, 2 or 4 days after dosing, a blood sample for measurement of plasma exposure of the GLP-1 derivative was taken from the heart in anaesthetised animals.
Food intake was calculated in 24 h intervals (0-24 h, 24-48 h, 48-72 h and 72-96 h).

[6] = biological target: T2, human GLP-1 receptor (human, UniProt P43220)
Target sequence in this assay (P43220 24-463): as above

[7] = biological target: T2, human GLP-1 receptor; test: displacement of [125I]-GLP-1-(7-36)NH2 from membranes with human GLP-1 receptor, SPA, high HSA (2.0%)
Experimental: (§1) Each derivative is added in a series of concentrations to isolated membranes containing the human GLP-1 receptor and displacement of the labelled ligand is monitored. The receptor binding is reported as the concentration at which half of the labelled ligand is displaced from the receptor, the $IC50$ value.
(§2) For the receptor binding assay in the presence of low HSA (0.001%) 50 μl of the assay buffer was added to each well of an assay plate. […] For the receptor binding assay in the presence of high HSA (2.0%) 50 μl of the 8% albumin stock was added to each well of an assay plate. […] Cell membrane aliquots were thawed and diluted to their working concentration. Fifty μl were added to each well in the assay plate. […] WGA SPA beads were suspended in assay buffer at 20 mg/ml. The suspension was diluted to 10 mg/ml in assay buffer just prior to addition to the assay plate. Fifty μl were added to each well in the assay plate. […] A 25 μl aliquot was reserved for measuring total counts/well. […] The assay plate was incubated for 2 h at 30° C. […] The assay plate was centrifuged for 10 min. […] The assay plate was read in a Packard TopCount NXT instrument.

[8] = biological target: T2, human GLP-1 receptor; test: displacement of [125I]-GLP-1-(7-36)NH2 from membranes with human GLP-1 receptor, SPA, low HSA (0.001%)
Experimental: as §1, §2

[9] = EC50/pM (1% HSA), 1% HSA final assay concentration
[10] = 0% HSA, read-out: EC50/pM (0% HSA)

`CC[C@H](C)[C@H](NC(=O)[C@H](Cc1ccccc1)NC(=O)[C@H](CCC(=O)O)NC(=O)[C@H](CCCNC(=N)N)NC(=O)[C@H](C)NC(=O)[C@H](C)NC(=O)[C@H](CCC(N)=O)NC(=O)[C@H](CCC(=O)O)NC(=O)[C@H](CCC(=O)O)NC(=O)[C@H](CC(C)C)NC(=O)[C@H](Cc1ccc(O)cc1)NC(=O)[C@H](CO)NC(=O)[C@H](CO)NC(=O)[C@@H](NC(=O)[C@H](CC(=O)O)NC(=O)[C@H](CO)NC(=O)[C@@H](NC(=O)[C@H](Cc1ccccc1)NC(=O)[C@@H](NC(=O)CNC(=O)[C@H](CCC(=O)O)NC(=O)C(C)(C)NC(=O)[C@@H](N)Cc1c[nH]cn1)[C@@H](C)O)[C@@H](C)O)C(C)C)C(=O)N[C@@H](C)C(=O)N[C@@H](Cc1c[nH]c2ccccc12)C(=O)N[C@@H](CC(C)C)C(=O)N[C@H](C(=O)N[C@@H](CCCNC(=N)N)C(=O)NCC(=O)N[C@@H](CCCCNC(=O)COCCOCCNC(=O)COCCOCCNC(=O)CC[C@H](NC(=O)CCCCCCCCCCOc1ccc(C(=O)O)cc1)C(=O)O)C(=O)N[C@@H](CCCCNC(=O)COCCOCCNC(=O)COCCOCCNC(=O)CC[C@H](NC(=O)CCCCCCCCCCOc1ccc(C(=O)O)cc1)C(=O)O)C(=O)O)C(C)C` [Example 1, N{Epsilon-36}-[2-[2-[2-[[2-[2-[2-[[(4S)-4-carboxy-4-[11-(4-carboxyphenoxy)undecanoylamino]butanoyl]amino]ethoxy]ethoxy]acetyl]amino]ethoxy]ethoxy]acetyl], N{Epsilon-37}-[2-[2-[2-[[2-[2-[2-[[(4S)-4-carboxy-4-[11-(4-carboxyphenoxy)undecanoylamino]butanoyl]amino]ethoxy]ethoxy]acetyl]amino]ethoxy]ethoxy]acetyl]-[Aib8,Glu22,Arg26,Arg34,Lys36,Lys37]-GLP-1-(7-37)-peptide] showed an EC50 ([1]; EC50/pM (0% HSA), 0% HSA) of 1.2 pM, an EC50 [1, 9] of 136 pM and a half-life [2] of 103 h. It also gave a half-life ([3]; iv, 2 nmol/kg, read-out: Beagle dogs iv PK, t½ (converted)) of 85 h and a bioavailability ([3]; po, absolute bioavailability (F), enteric coated sodium caprate tablet with approximately 10 mg derivative (Example 33)) of 2.4%.

Work on `CC[C@H](C)[C@H](NC(=O)[C@H](Cc1ccccc1)NC(=O)[C@H](CCC(=O)O)NC(=O)[C@H](CCCNC(=N)N)NC(=O)[C@H](C)NC(=O)[C@H](C)NC(=O)[C@H](CCC(N)=O)NC(=O)[C@H](CCC(=O)O)NC(=O)[C@H](CCC(=O)O)NC(=O)[C@H](CC(C)C)NC(=O)[C@H](Cc1ccc(O)cc1)NC(=O)[C@H](CO)NC(=O)[C@H](CO)NC(=O)[C@@H](NC(=O)[C@H](CC(=O)O)NC(=O)[C@H](CO)NC(=O)[C@@H](NC(=O)[C@H](Cc1ccccc1)NC(=O)[C@@H](NC(=O)CNC(=O)[C@H](CCC(=O)O)NC(=O)C(C)(C)NC(=O)[C@@H](N)Cc1c[nH]cn1)[C@@H](C)O)[C@@H](C)O)C(C)C)C(=O)N[C@@H](C)C(=O)N[C@@H](Cc1c[nH]c2ccccc12)C(=O)N[C@@H](CC(C)C)C(=O)N[C@H](C(=O)N[C@@H](CCCNC(=N)N)C(=O)NCC(=O)N[C@@H](CCCCNC(=O)COCCOCCNC(=O)COCCOCCNC(=O)COCCOCCNC(=O)CC[C@H](NC(=O)CCCCCCCCCCCCC(=O)O)C(=O)O)C(=O)N[C@@H](CCCCNC(=O)COCCOCCNC(=O)COCCOCCNC(=O)COCCOCCNC(=O)CC[C@H](NC(=O)CCCCCCCCCCCCC(=O)O)C(=O)O)C(=O)O)C(C)C` [Example 12] yielded an EC50 [1, 10] of 1.2 pM, an EC50 [1, 9] of 10 pM and an IC50 [4] of 0.2 nM. For the same molecule, the half-life [2] was 80 h.

With `CC[C@H](C)[C@H](NC(=O)[C@H](Cc1ccccc1)NC(=O)[C@H](CCC(=O)O)NC(=O)[C@H](CCCNC(=N)N)NC(=O)[C@H](C)NC(=O)[C@H](C)NC(=O)[C@H](CCC(N)=O)NC(=O)[C@H](CCC(=O)O)NC(=O)[C@H](CCC(=O)O)NC(=O)[C@H](CC(C)C)NC(=O)[C@H](Cc1ccc(O)cc1)NC(=O)[C@H](CO)NC(=O)[C@H](CO)NC(=O)[C@@H](NC(=O)[C@H](CC(=O)O)NC(=O)[C@H](CO)NC(=O)[C@@H](NC(=O)[C@H](Cc1ccccc1)NC(=O)[C@@H](NC(=O)CNC(=O)[C@H](CCC(=O)O)NC(=O)C(C)(C)NC(=O)[C@@H](N)Cc1c[nH]cn1)[C@@H](C)O)[C@@H](C)O)C(C)C)C(=O)N[C@@H](C)C(=O)N[C@@H](Cc1c[nH]c2ccccc12)C(=O)N[C@@H](CC(C)C)C(=O)N[C@H](C(=O)N[C@@H](CCCNC(=N)N)C(=O)NCC(=O)N[C@@H](CCCCNC(=O)COCCOCCNC(=O)CC[C@H](NC(=O)CC[C@H](NC(=O)CCCCCCCCCCCCC(=O)O)C(=O)O)C(=O)O)C(=O)N[C@@H](CCCCNC(=O)COCCOCCNC(=O)CC[C@H](NC(=O)CC[C@H](NC(=O)CCCCCCCCCCCCC(=O)O)C(=O)O)C(=O)O)C(=O)O)C(C)C` [Example 13, N{Epsilon-36}-[2-[2-[2-[[(4S)-4-carboxy-4-[[(4S)-4-carboxy-4-(13-carboxytridecanoylamino)butanoyl]amino]butanoyl]amino]ethoxy]ethoxy]acetyl], N{Epsilon-37}-[2-[2-[2-[[(4S)-4-carboxy-4-[[(4S)-4-carboxy-4-(13-carboxytridecanoylamino)butanoyl]amino]butanoyl]amino]ethoxy]ethoxy]acetyl]-[Aib8,Glu22,Arg26,Arg34,Lys36,Lys37]-GLP-1-(7-37)-peptide] the EC50 [1, 10] was 1.3 pM, the EC50 [1, 9] was 18 pM and the IC50 [4] was 0.47 nM. For the same molecule, the half-life [2] was 98 h.

In the case of `CC[C@H](C)[C@H](NC(=O)[C@H](Cc1ccccc1)NC(=O)[C@H](CCC(=O)O)NC(=O)[C@H](CCCNC(=N)N)NC(=O)[C@H](C)NC(=O)[C@H](C)NC(=O)[C@H](CCC(N)=O)NC(=O)[C@H](CCC(=O)O)NC(=O)[C@H](CCC(=O)O)NC(=O)[C@H](CC(C)C)NC(=O)[C@H](Cc1ccc(O)cc1)NC(=O)[C@H](CO)NC(=O)[C@H](CO)NC(=O)[C@@H](NC(=O)[C@H](CC(=O)O)NC(=O)[C@H](CO)NC(=O)[C@@H](NC(=O)[C@H](Cc1ccccc1)NC(=O)[C@@H](NC(=O)CNC(=O)[C@H](CCC(=O)O)NC(=O)C(C)(C)NC(=O)[C@@H](N)Cc1c[nH]cn1)[C@@H](C)O)[C@@H](C)O)C(C)C)C(=O)N[C@@H](C)C(=O)N[C@@H](Cc1c[nH]c2ccccc12)C(=O)N[C@@H](CC(C)C)C(=O)N[C@H](C(=O)N[C@@H](CCCNC(=N)N)C(=O)NCC(=O)N[C@@H](CCCCNC(=O)COCCOCCNC(=O)COCCOCCNC(=O)COCCOCCNC(=O)COCCOCCNC(=O)CC[C@H](NC(=O)CCCCCCCCCCCCC(=O)O)C(=O)O)C(=O)N[C@@H](CCCCNC(=O)COCCOCCNC(=O)COCCOCCNC(=O)COCCOCCNC(=O)COCCOCCNC(=O)CC[C@H](NC(=O)CCCCCCCCCCCCC(=O)O)C(=O)O)C(=O)O)C(C)C` [Example 20], the EC50 [1, 10] is reported as 2.7 pM, the EC50 [1, 9] is reported as 5.8 pM and the “PD in pig, food intake (% of vehicle) for hours 0-24” value ([5]; single s.c. dose 3 nmol/kg, 0-24 h, NS = not significantly different from vehicle) is reported as 10 % of vehicle. For the same molecule, the “PD in pig, food intake (% of vehicle) for hours 24-48” value ([5]; single s.c. dose 3 nmol/kg, 24-48 h, NS = not significantly different from vehicle) was 18 % of vehicle, the “PD in pig, food intake (% of vehicle) for hours 48-72” value ([5]; single s.c. dose 3 nmol/kg, 48-72 h, NS = not significantly different from vehicle) was 65 % of vehicle and the “PD in pig, food intake (% of vehicle) for hours 72-96” value ([5]; single s.c. dose 3 nmol/kg, 72-96 h, NS = not significantly different from vehicle) was 81^NS % of vehicle. The “reduction in food intake (in words)” value ([5]; single s.c. injection in pigs) was “largest reduction in food intake”.

With H[Aib]EGTFTSDVSSYLEEQAAREFIAWLVRGK([AEEA-AEEA-γGlu-γGlu-C14 diacid])K([AEEA-AEEA-γGlu-γGlu-C14 diacid]) [GLP-1 derivative of Example 21] the EC50/pM (0% HSA) [6] was 5.6 pM, the EC50/pM (1% HSA) [6] was 13 pM and the IC50 [7] was 89 nM. It also gave an IC50 [8] of 0.42 nM.

Molecule H[Aib]EGTFTSDVSSYLEEQAAREFIAWLVRGK([AEEA-AEEA-AEEA-AEEA-γGlu-C14 diacid])K([AEEA-AEEA-AEEA-AEEA-γGlu-C14 diacid]) [GLP-1 derivative of Example 20] has an EC50/pM (0% HSA) [6] of 2.7 pM, an EC50/pM (1% HSA) [6] of 5.8 pM and an IC50 [8] of 0.81 nM.

With H[Aib]EGTFTSDVSSYLEEQAAREFIAWLVRGKK (not fully specified (residues 30, 31)) [GLP-1 derivative of Example 1] the EC50/pM (0% HSA) [6] was 1.2 pM, the EC50/pM (1% HSA) [6] was 136 pM and the IC50 [7] was 135 nM. For the same molecule, the IC50 [8] was 0.21 nM.

H[Aib]EGTFTSDVSSYLEEQAAREFIEWLVRGK([AEEA-AEEA-γGlu-Decanoyl(10-O(3-COOH-Ph))])K([AEEA-AEEA-γGlu-Decanoyl(10-O(3-COOH-Ph))]) [GLP-1 derivative of Example 27] showed an EC50/pM (0% HSA) [6] of 13 pM, an EC50/pM (1% HSA) [6] of 105 pM and an IC50 [7] of 478 nM. The IC50 [8] was 0.66 nM.

In the case of HGEGTFTSDVSSYLEEQAAREFIAWLVRGK([AEEA-AEEA-γGlu-Undecanoyl(11-OPh(4-COOH))])K([AEEA-AEEA-γGlu-Undecanoyl(11-OPh(4-COOH))]) [GLP-1 derivative of Example 17], the EC50/pM (0% HSA) [6] is reported as 14 pM, the EC50/pM (1% HSA) [6] is reported as 199 pM and the IC50 [7] is reported as 536 nM. It also gave an IC50 [8] of 0.9 nM.

For H[Aib]EGTFTSDVSSYLEEQAAREFIAWLVRGK([AEEA-AEEA-γGlu-Decanoyl(10-O(3-COOH-Ph))])K([AEEA-AEEA-γGlu-Decanoyl(10-O(3-COOH-Ph))]) [GLP-1 derivative of Example 15], the EC50/pM (0% HSA) [6] was 6.1 pM, the EC50/pM (1% HSA) [6] was 44 pM and the IC50 [7] was 126 nM. It also gave an IC50 [8] of 0.38 nM.

Reference: patent US10689429B2, “Double-acylated GLP-1 compounds” (Novo Nordisk A/S, priority 2014, dated 2020)
